Paper PMC9401620

T1: RBM46 (mouse, UniProt P86049 1-533)
T1 sequence: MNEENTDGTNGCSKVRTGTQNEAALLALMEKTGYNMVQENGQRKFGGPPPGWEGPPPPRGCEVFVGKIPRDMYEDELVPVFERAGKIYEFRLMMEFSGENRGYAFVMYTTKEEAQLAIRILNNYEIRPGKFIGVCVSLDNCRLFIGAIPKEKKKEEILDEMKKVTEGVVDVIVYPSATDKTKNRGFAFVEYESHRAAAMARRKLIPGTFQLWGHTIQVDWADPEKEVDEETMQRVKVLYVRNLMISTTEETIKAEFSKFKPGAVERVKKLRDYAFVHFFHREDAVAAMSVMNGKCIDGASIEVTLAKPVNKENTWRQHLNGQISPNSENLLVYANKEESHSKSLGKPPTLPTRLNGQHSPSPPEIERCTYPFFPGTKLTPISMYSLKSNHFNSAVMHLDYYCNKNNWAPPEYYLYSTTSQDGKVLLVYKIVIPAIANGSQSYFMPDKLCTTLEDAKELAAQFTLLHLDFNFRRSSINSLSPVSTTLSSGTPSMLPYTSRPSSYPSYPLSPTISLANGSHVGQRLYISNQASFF

B1: Ccna2 3'UTR RNA probe (ssRNA)
RNA: UUGUGAAACUAAAACCCGAC
B2: RNA probe without RBM46-binding motif (ssRNA)
RNA: UGUUUGAAACAGGAGUCGCU

Biological target: T1, RBM46
Test: EMSA

| Binder | binding result |
| --- | --- |
| B1 | binds |
| B2 | no binding |
